Consider twelve molecules from US20140308283A1 (TORAY INDUSTRIES, published 2014).

A value given as a limit tells only on which side of the number the result lay.

B1: mouse monoclonal antibody #3 (antibody, V domains shown)
VH: GGGLVKPGGSLKLSCAASGFTFSSYGMSWVRQTPEKRLEWVATISSGGSYTYYPDSVKGRFTISRDNAKNTLYLQMSSLRSEDTAMYYCASLASYYFDYWGQGTTLTVSS
VL: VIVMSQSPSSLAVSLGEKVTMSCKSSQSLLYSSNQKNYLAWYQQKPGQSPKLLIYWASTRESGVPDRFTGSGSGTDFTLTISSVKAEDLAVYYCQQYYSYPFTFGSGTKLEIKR
B2: mouse monoclonal antibody #8 (antibody, V domains shown)
VH: GGGLVKPGGSLKLSCAASGFAFSSYDMSWIRQTPEKRLEWVAYISSGAGSTYYPDTVKGRFTVSRDNAKNTLYLQMSSLKSEDTAMYYCARHFYRFDYWGQGTTVTVSS
VL: SIVMTQTPKFLLVSAGDRITITCKASQSVSNDVAWYQQKPGQSPKLLIYYASNRYTGVPDRFTGSGYGTDFTFTISTVQAEDLAVYFCQQDDRFPLTFGAGPS
notes: Mouse hybridoma antibody; also called anti-CAPRIN-1 mouse monoclonal antibody #8
B3: mouse monoclonal antibody #12 (antibody, V domains shown)
VH: EVQLHQFGAELVKPGASVKISCKASGYTFTDYNMDWVKQSHGKSLEWIGDINPNYDSTSYNQKFKGKATLTVDKSSSTAYMELRSLTSEDTAVYYCARSRSYDYEGFAYWGQGTLVTVSA
VL: DIQMTQSPASLSASVGETVTITCRASGNIHNYLAWYQQKQGKSPQLLVYNAKTLADGVPSRFSGSGSGTQYSLKINSLQPEDFGSYYCQHFWSTLTFGAGTKLELKR
notes: Mouse hybridoma antibody; also called anti-CAPRIN-1 mouse monoclonal antibody #12
B4: mouse monoclonal antibody #15 (antibody, V domains shown)
VH: B3 VH
VL: SGDRVSLSCRASQSISNYLHWYQQKSHESPRLLIKYASQSISGIPSRFSGSGSGTDFTLSINSVETEDFGMYFCQQSNSWPYTFGAGTKLEIKQ
notes: Mouse hybridoma antibody; also called anti-CAPRIN-1 mouse monoclonal antibody #15
B5: mouse monoclonal antibody #14 (antibody, V domains shown)
VH: B3 VH
VL: DIQLTQSPASLSASVGETVTITCRASGNIHNYLAWYQQKQGKSPQLLVYNAKTLADGVPSRFSGSGSGTQYSLKINSLQPEDFGSYYCQHFWSTLTFGGGTKLEIK
notes: Mouse hybridoma antibody; also called anti-CAPRIN-1 mouse monoclonal antibody #14
B6: mouse monoclonal antibody #13 (antibody)
chain 1: EVQLHQFGAELVKPGASVKISCKASGYTFTDYNMDWVKQSHGKSLEWIGDINPNYDSTSYNQKFKGKATLTVDKSSSTAYMELRSLTSEDTAVYYCARSRSYDYEGFAYWGQGTLVTVSAAKTTPPSVY
chain 2: AVLRCSRGLLVIWISDIQLTQSPSSLAVTAGEKVTMSCKSSQSLLWSVNQKNYLSWYQQKQRQPPKLLIYGASIRESWVPDRFTGSGSGTDFTLTISNVHAEDLAVYYCQHNHGSFLPSRSEQVPSWRSNNR
B7: mouse monoclonal antibody #6 (antibody)
chain 1: DAELVKPGASVKISCKASGYTFTDHSIHWVQQKPEQGLEWIGYISPGNGNIKYNEKFKGKATLTADKSSSTAYMQLNSLTSEDSAVYFCKRSLGRGGPYYFDYWGQGTTVTVSS
chain 2: DIVLTQAAPSLPVTPGESVSISCRSSKSLLHSNGNTYLYWFLQRPGQSPQLLIYRMSNLASGVPDRFSGSGSGTAFTLRISRVEAEDVGVYYCMQHREYPVTFGSGPN
B8: mouse monoclonal antibody #18 (antibody, V domains shown)
VH: LQESGAELARPGASVKLSCKASGYTFTSYWMQWVKQRPGQGLEWIGAIYPGDGDTRYTQKFKGKATLTADKSSSTAYMQLSSLASEDSAVYYCARGEYGNYFAYWGQGTTVTVSS
VL: TSDASLGERVTITCKASQDINSYLSWFQQKPGKSPKTLIYRANRLVDGVPSRFSGSGSGQDYSLTISSLEYEDMGIYYCLQYDEFPLTFGGGTKLEIKQ
notes: Mouse hybridoma antibody; also called anti-CAPRIN-1 mouse monoclonal antibody #18
B9: human-chicken chimeric antibody #2 (antibody, human IgG1, kappa, V domains shown)
VH: AVTLDESGGGLQTPGGGLSLVCKASGFTFSSFDMGWVRQAPGKGLEFVAQINDAGSRTWYATAVKGRATISRDNGQTTVRLQLNNLRAEDTGTYYCTRGSGYVGAGAIDAWGHGTEVIVSA
VL: AALTQPSSVSANPGETVKITCSGGSGYYGWYQQQKSPGSAPVTVIYQNDKRPSDIPSRFSGSGSGSTNTLTITGVQAEDEAVYFCGRYDSTDSGIFGAGTTLTVLT
B10: mouse-chicken chimeric antibody #2 (antibody, mouse IgG1, V domains shown)
VH: AVTLDESGGGLQTPGGGLSLVCKASGFTFSSFDMGWVRQAPGKGLEFVAQINDAGSRTWYATAVKGRATISRDNGQTTVRLQLNNLRAEDTGTYYCTRGSGYVGAGAIDAWGHGTEVIVS
VL: AALTQPSSVSANPGETVKITCSGGSGYYGWYQQQKSPGSAPVTVIYQNDKRPSDIPSRFSGSGSGSTNTLTITGVQAEDEAVYFCGRYDSTDSGIFGAGTTLTVL
notes: also called anti-CAPRIN-1 mouse-chicken chimeric antibody #2
B11: mouse-chicken chimeric antibody #3 (antibody, mouse IgG1, V domains shown)
VH: AVTLDESGGGLQTPGGALSLVCKASGFTFSGYDMLWVRQAPGKGLEWVAGIGSTGGGTDYGAAVKGRATISRDNGQSTVRLQLNNLRAEDTATYYCAKVAGGCNSGYCRDSPGSIDAWGHGTEVIVS
VL: AVTQQPASVSANPGETVKITCSGGGSRNYYGWYQQKSPGSVPVTVIYYDDQRPSNIPSRFSGALSGSTSTLTITGVQADDEAVYFCGSADSNTYEGSFGAGTTLTVL
notes: also called anti-CAPRIN-1 mouse-chicken chimeric antibody #3
B12: mouse-chicken chimeric antibody #1 (antibody, mouse IgG1, V domains shown)
VH: AVTLDESGGGLQMSRGGLSLVCKASGFDFSSYQMNWIRQAPGKGLEFVAAINKFGNSTGHGAAVKGRVTISRDNGQSTVRLQLNNLRAEDTAIYFCTKHAYGYCGSGTWCAAGEIDAWGHGTEVIVSS
VL: QAASTQPSSVSANPGETVEITCSGGGSYSYGWFQQKSPGSAPVTVIYYNNKRPSDIPSRFSGSKSGSTGTLTITGVQADDEAVYYCGSGDSTDTAVFGAGTTLTVLG
notes: from CHO-K1 culture supernatant; also called anti-CAPRIN-1 mouse-chicken chimeric antibody #1

The target of the first test is T1, CAPRIN-1 protein expressed on the cell membrane surface of human cancer cell lines (human, UniProt Q14444 2-709).
T1 sequence (looked up): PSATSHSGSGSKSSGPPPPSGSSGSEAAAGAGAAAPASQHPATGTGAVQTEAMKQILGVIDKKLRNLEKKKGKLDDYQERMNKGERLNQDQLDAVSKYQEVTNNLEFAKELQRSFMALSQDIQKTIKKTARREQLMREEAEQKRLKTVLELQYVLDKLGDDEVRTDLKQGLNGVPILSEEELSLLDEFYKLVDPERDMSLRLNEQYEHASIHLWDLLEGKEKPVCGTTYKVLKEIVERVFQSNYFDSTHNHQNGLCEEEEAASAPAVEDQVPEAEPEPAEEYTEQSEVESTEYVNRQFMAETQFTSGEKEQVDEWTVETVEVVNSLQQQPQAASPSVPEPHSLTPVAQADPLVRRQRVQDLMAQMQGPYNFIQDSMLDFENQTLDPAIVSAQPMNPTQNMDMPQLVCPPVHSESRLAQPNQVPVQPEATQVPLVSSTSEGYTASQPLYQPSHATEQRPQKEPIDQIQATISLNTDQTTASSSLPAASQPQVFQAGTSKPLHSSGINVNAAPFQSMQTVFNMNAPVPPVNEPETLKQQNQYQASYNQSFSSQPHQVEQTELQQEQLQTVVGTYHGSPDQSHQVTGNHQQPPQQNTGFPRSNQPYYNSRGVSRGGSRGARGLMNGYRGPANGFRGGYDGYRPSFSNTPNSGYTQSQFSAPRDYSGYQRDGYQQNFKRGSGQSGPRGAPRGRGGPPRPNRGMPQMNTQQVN
In words: cell-based or functional assay.
With B1, the “cytotoxic activity (ADCC) against MIAPaCa-2 and Capan-2” value (from here on “cytotoxic activity (ADCC)”) was at least 10%.

As for B2, the “cytotoxic activity (ADCC)” value was at least 10%.

Turning to B3, the “cytotoxic activity (ADCC)” value is at least 10%.

For B4, the “cytotoxic activity (ADCC)” value was at least 10%.

For the molecule B5, the “cytotoxic activity (ADCC)” value was at least 10%.

Consider B6, for which the “cytotoxic activity (ADCC)” value is at least 10%.

Regarding B7, the “cytotoxic activity (ADCC)” value was at least 10%.

Regarding B8, the “cytotoxic activity (ADCC)” value was at least 10%.

In the case of B9, the “cytotoxic activity (ADCC)” value is at least 10%.

The next test concerns the target T1, CAPRIN-1 protein expressed on the cell …. Nature of the test: flow cytometry on Capan-2, MIAPaCa-2, PANC-1 and BxPC-3 cells, vs isotype control. The procedure:
Next, four pancreatic cancer cell lines (Capan-2, MIAPaCa-2, PANC-1, and BxPC-3) confirmed to have CAPRIN-1 gene expression were examined for their expression of CAPRIN-1 protein on the cell surface. 10⁶ cells of each cell line were centrifuged in each 1.5-ml microcentrifuge tube. The cancer cell surface-reactive anti-CAPRIN-1 mouse monoclonal antibodies #1 to #22 prepared in Example 4 and the culture supernatant (100 μl) containing the anti-CAPRIN-1 mouse-chicken chimeric antibody #1, #2, or #3 prepared in the preceding paragraph (2) were separately added to the tubes and left standing for 1 hour on ice. After washing with PBS, the cells were suspended in FITC-labeled goat anti-mouse IgG antibodies (manufactured by Invitrogen Corp.) diluted 500-fold with PBS containing 0.1% FBS and left standing for 1 hour on ice. After washing with PBS, the fluorescence intensity was measured using FACSCalibur (Becton, Dickinson and Company). On the other hand, the same operation as above was performed using isotype control antibodies, instead of the anti-CAPRIN-1 mouse monoclonal antibodies #1 to #22 and the culture supernatant containing the mouse-chicken chimeric antibody #1, #2, or #3, to prepare a control. As a result, all the cells supplemented with any of the monoclonal antibodies #1 to #22 and the mouse-chicken chimeric antibodies #1, #2, and #3 had fluorescence intensity at least 20% stronger than that of the control. […] The above rate of enhancement in fluorescence intensity was indicated by the rate of increase in mean fluorescence intensity (MFI) in each cell line and calculated according to the following expression: […]
Background: In flow cytometry, cells or beads pass a laser one at a time.
As to B1, the “rate of increase in mean fluorescence intensity” value (“rate of increase” below) was at least 20%.

As to B10, the “rate of increase” value is at least 20%.

As for B2, the “rate of increase” value is at least 20%.

Take B3: the “rate of increase” value was at least 20%.

For B4, the “rate of increase” value was at least 20%.

B5: the “rate of increase” value is at least 20%.

Consider B6, for which the “rate of increase” value was at least 20%.

In the case of B7, the “rate of increase” value was at least 20%.

On to B8, for which the “rate of increase” value is at least 20%.

As for B11, the “rate of increase” value was at least 20%.

Consider B12, for which the “rate of increase” value is at least 20%.
